This is an account of results in article PMC13638050.

By Kd is commonly meant a measure of binding affinity in units of concentration.

The assay addresses H1 stem (recombinant HA stem construct #4900 designed based on H1N1 A/Brisbane/59/2007 HA) (influenza A virus H1N1 A/Brisbane/59/2007). As to the kind of experiment: BLI. (In general: In BLI a coated tip is dipped into the sample, and binding shifts an interference pattern.)

somatic CR9114 Fab: the Kd was < 0.1 nM.
